Data from PMC3905668.

Tests used:
[1] = biological target: N-terminally KGN-tagged Vpr (KGN-Vpr) (UniProt P12520); assay: bimolecular fluorescence complementation (BiFC), flow cytometry on cells; settings: 293T cells, 48 hours post-transfection; parent: est. 100; read off a plot
[2] = biological target: C-terminally KGC-tagged Gag (Gag-KGC); assay: as above; settings: 293T cells, 48 hours post-transfection; parent: est. 100; read off a plot

| Substance | percent of parent [1] [%] | percent of parent [2] [%] |
| --- | --- | --- |
| C-terminally KGC-tagged Gag (Gag-KGC) S487A | 35 | – |
| N-terminally KGN-tagged Vpr (KGN-Vpr) (from UniProt P12520) Q44E | – | 30 |
